Measurements: PMC5736220

Target: protocadherin-15 EC1+2 R113G, His-tagged (mouse), Q99PJ1
Assay: thermal scanning (thermal stability shift assay with SYPRO orange); pcdh15 fixed at 0.1 mg/mL (~4 μM), cdh23 0.1 to 0.5 mg/mL (~4 to 20 μM; cdh23:pcdh15 1:1 to 5:1); SEC buffer (20 mM Tris-HCl pH 7.5, 150 mM KCl, 50 mM NaCl, 2 mM CaCl2); 10 to 95°C in 0.2°C steps, 5 s equilibration; read-out: shift of the Tm of pcdh15 (ΔTm)
Conditions: remark: other sources report otherwise

- ΔTm of pcdh15 at cdh23:pcdh15 1:1: -0.6 °C
- ΔTm of pcdh15 at cdh23:pcdh15 2:1: 0.2 °C
- ΔTm of pcdh15 at cdh23:pcdh15 3:1: 1 °C
- ΔTm of pcdh15 at cdh23:pcdh15 4:1: 1.3 °C
- ΔTm of pcdh15 at cdh23:pcdh15 5:1: 1.5 °C
B1: cadherin-23 EC1+2, wild type, His-tagged, Q99PF4 24-228 (domain or fragment)
chain: QVNRLPFFTNHFFDTYLLISEDTPVGSSVTQLLARDMDNDPLVFGVSGEEASRFFAVEPDTGVVWLRQPLDRETKSEFTVEFSVSDHQGVITRKVNIQVGDVNDNAPTFHNQPYSVRIPENTPVGTPIFIVNATDPDLGAGGSVLYSFQPPSPFFAIDSARGIVTVIQELDYEVTQAYQLTVNATDQDKTRPLSTLANLAIIITD
